The record followed here is US12139531B2, “Compositions and methods useful in promoting milk production” (The Regents of the University of California, priority 2019, dated 2024).

One assay concerns mammary gland. Briefly: Subcutaneous injection into ovariectomized, hormone-treated mice; carmine-stained mammary gland branching. Particulars: 14 days, ovariectomized animals given E, P, Prl. The format is in vivo. The protocol: The influence of ROBO1 ECD fragments in vitro on primary alveolar progenitor cell growth and in vivo on branching morphogenesis was tested. FACS-purified murine and bovine alveolar progenitor cells (AVPs) were plated as single cells in Matrigel and grown for 10 days in the absence and presence of ROBO1-ECDs fragments (FIGS. 9A, B). […] ROBO1-Ig5 fragments were also tested in vivo by subcutaneously injecting them (7.5 mammary gland/kg/day) into ovariectomized animals that were orally administered hormones in Nutella: estrogen (E, 1 μg/day), progesterone (P, 1 mg/day mammary gland/day) and prolactin (Prl, 0.2 mg/day mammary gland/day) (FIG. 9C). The mammary glands were harvested after 14 days of ROBO1-Ig5 fragment treatment, carmine stained and evaluated. […] Other aspects can involve ROBO1-ECD constructs that are tagged with the murine-Fc sequence. This tag is recognized by an endogenous receptor that facilitates transport into tissues 4. Mouse mammary glands were surgically dissected, spread onto a glass slide, and fixed in Carnoy's solution (25% glacial acetic acid and 75% ethanol). […] C57BL mice (8-10 weeks old) were bilaterally ovariectomized and allowed to recover for 1 week^47. During the recovery, mice were trained with oral administration Nuttella. Mice were fed Nutella mixed with 17beta-estradiol (E, 1 μg, Sigma)+progesterone (P, 1 mg, Sigma) for three weeks (daily). For ROBO1-Ig5 ECD, prolactin (Prl, 200 μg, NHPP) was given by Nutella oral administration over one week (daily), starting after 1 week E+P. For ROBO2 mAb, prolactin (Prl, 50 μg) was injected by intraperitoneal injection over 2.5 weeks (daily), starting after 1 week E+P. ROBO1-Ig5 ECD was injected subcutaneously (7.5 mg/kg ROBO1-Ig5 ECD or PBS; daily) over the 2 weeks period, starting after 1 week of E+P. ROBO2 mAbs or IgG isotype control mAbs ([…]) were injected subcutaneously twice/week over 17 days, starting after 1 week of E+P^48.

The subject of assay [1] is HC11 cells. Briefly: Western blot analysis of WAP and PLIN2 in HC11 cells. The format is cell-based, mouse. To be noted: ECD titration. As for the experimental part: To determine whether the promotion of dome formation also results in higher milk production, HC11 cells were differentiated in the presence or absence of ROBO1-ECD fragments that were added to cells simultaneously with DIP media. Cells were harvested and the expression of WAP and Lalba assessed by RT-qPCR. […] WAP expression levels were not increased in cells treated with DCC-Ig4 (FIG. 7K). Next, Western blot analysis of WAP and PLIN2 was performed on cells treated with ROBO1-Ig5 and ROBO1-Ecto.
Protein lysates were prepared by directly lysing adherent cells in 1× sample buffer supplemented with 5% beta-mercaptoethanol and boiled for 5 minutes. Protein lysate was resolved by SDS-PAGE and transferred to a PVDF for 90 minutes at 400 mA or overnight at 30 mA. Primary antibodies were used at the concentration indicated in Table 1 and incubated overnight at 4° C. HRP conjugated secondary antibodies (Jackson Labs) were used at 1:3000 and incubated for 45 minutes at room temp. All proteins were detected using Clarity ECL (BioRad) using a BioRad Chemi-Doc MP Imager and quantified using ImageLab software as previously described a.

Assay [2] relates to HC11 cells. The experiment in a line: HC11 dome assay (milk dome formation on differentiation in DIP media). It is filed as cell-based, mouse. The protocol: To investigate ROBO1 function during alveologenesis, Robo1 gene expression was inhibited in HC11 cells (Robo1 KD). HC11 cells are a well-established, prolactin-responsive model of lactation,^19,20. Cells in which Robo1 gene expression was not inhibited are referred to as WT or Robo1+/+ herein. To measure milk production, cells were grown to confluence and then primed by treatment with epidermal growth factor (EGF, 10 ng/ml). The EGF is administered for three days in combination with charcoal-stripped fetal bovine serum, followed by one day of charcoal-stripped fetal bovine serum in the absence of EGF. These primed cells are then differentiated by treatment with dexamethasone (1 μg/ml), insulin (5 μg/ml) and prolactin (Prl, 5 μg/ml) media (DIP media) for between 3 and 5 days (FIG. 2A). Differentiation (Dif) results in the development of milk-filled domes (FIG. 2B). […] If the cells were left undifferentiated (Undif), there was little dome formation in either WT or Robo1−/− cells (FIG. 2B). Next, tissue from Robo1 knockout mice (Robo1−/−) and wild type mice (WT or Robo1+/+) mice was analyzed. Mammary glands were harvested from pregnant day 18 WT and Robo1−/− animals and alveologenesis analyzed by serially sectioning, carmine staining and then quantifying the area occupied by alveoli in sections located at top, middle and bottom portions of the tissue.
Dome number formation in response to a titration of ROBO1 ECD fragments was quantified. […] A bovine ROBO1-Ig5 construct was also tested in this assay and, as with the rat constructs, more domes were formed in response to treatment with higher concentrations of […] (FIG. 7H).
HC11 cells were grown in RPMI 1640 media (Gibco) supplemented with 10% fetal bovine serum (BioFluid Technologies), 5 μg/mL insulin (Sigma), and 10 ng/ml epidermal growth factor (EGF; Sigma). To induce differentiation in HC11 cells, confluent plates were given fresh media (RPMI 1640 media supplemented with 5% charcoal-stripped fetal bovine serum (BioFluid Technologies), 5 μg/mL insulin, and 10 ng/ml epidermal growth factor (EGF; Sigma) for 3 days followed by 24 hours of priming in priming medium (RPMI 1640 media supplemented with 5% charcoal-stripped fetal bovine serum (BioFluid Technologies), and 5 μg/mL insulin. After priming, DIP medium (RPMI 1640 media supplemented with 5% charcoal-stripped fetal bovine serum (BioFluid Technologies), 10^−6 M dexamethasone (Sigma), 5 μg/mL insulin, and 5 μg/mL prolactin (National Hormone and Peptide program) was added with fresh media every 24 hours.

“Also recorded” adds a separate entry of the source.

B1: ROBO1-Ig5: recombinant soluble ROBO1 ECD construct comprising all five Ig domains (protein)
chain: SRLRQEDFPPRIVEHPSDLIVSKGEPATLNCKAEGRPTPTIEWYKGGERVETDKDDPRSHRMLLPSGSLFFLRIVHGRKSRPDEGVYICVARNYLGEAVSHNASLEVAILRDDFRQNPSDVMVAVGEPAVMECQPPRGHPEPTISWKKDGSPLDDKDERITIRGGKLMITYTRKSDAGKYVCVGTNMVGERESEVAELTVLERPSFVKRPSNLAVTVDDSAEFKCEARGDPVPTVRWRKDDGELPKSRYEIRDDHTLKIRKVTAGDMGSYTCVAENMVGKAEASATLTVQEPPHFVVKPRDQVVALGRTVTFQCEATGNPQPAIFWRREGSQNLLFSYQPPQSSSRFSVSQTGDLTVTNVQRSDVGYYICQTLNVAGSIITKAYLEVTDVIADRPPPVIRQGPVNQTVAVDGTLTLSCVATGSPVPTILWRKDGVLVSTQDSRIKQLESGVLQIRYAKLGDTGRYTCTASTPSGEATWSAYIEVQEF
For the molecule B1, in the assay with mammary gland, the “mammary gland area (size)” value was “significantly greater area”; the “number of primary (1°) branches” value was “higher number”; the overall branching density entry is reported as “not different from that of controls; also recorded: no increase”; the “secondary (2°) and tertiary (3°) branching” value was “More and Increased”. Further, in the assay on mammary gland (listed as ROBO1-Ig-5), the “mammary gland area (size)” value is “Increased” and the “number of primary (1°) branches” value is recorded as “Increased”. Further, in the assay on HC11 cells [1], the PLIN2 protein expression result is recorded as “approximately two-fold; also recorded: increased” and the WAP protein expression entry is “approximately two-fold; also recorded: increased”. The “dome formation in control cells (Scr)” value with HC11 cells [2] (HC11 Scramble KD (Scr) cells, ROBO1-ECD treatment) was “increased dome formation”. For the same molecule, the “dome formation in response to a titration of ECD fragments” value in the assay on HC11 cells [2] (HC11 cells, increasing ECD concentration) was “higher rates of dome formation”. The “dome formation with ECD fragments generated in the presence of heparin” value with HC11 cells [2] (HC11 cells, vs same fragments generated in the absence of heparin (300 ng/ml)) was “fewer domes; also recorded: diminished”. The “dome formation in Notch4 knockdown cells (shNotch4)” value in the assay on HC11 cells [2] (HC11 shNotch4 cells, ROBO1-Ig5 treatment) is on record as “same level of dome formation as untreated Notch4 knockdown cells; also recorded: unaffected”. In addition, the “dome formation in cells in which Robo1 expression was inhibited (shRobo1)” value in the assay on HC11 cells [2] (HC11 shRobo1 cells, ROBO1-Ig5 treatment) is “same level as that of control cells (Scr) treated with ROBO1-ECD fragments; also recorded: rescued”.
